Patent US20240262905A1 (PANDION OPERATIONS, published 2024)

Experiments:
[1] = target: PD-1 on PD-1 reporter Jurkat cells (human, UniProt Q15116 25-288); experiment: cell-based or functional assay
[2] = target: T1, Insulin; experiment: ELISA, plate coated with insulin 5 ug/mL, test article at 100 nM, anti-human Fc-HRP detection
T1 construct: Plate coat in the polyreactivity ELISA

[3] = target: T2, human PD-1 (human, UniProt Q15116 25-167); experiment: BLI (Octet), test article captured on anti-human Fc biosensors, human PD-1 as analyte, 1:1 global fit
T2 construct: Soluble analyte in the Octet assay
T2 sequence (Q15116 25-167 limits assumed): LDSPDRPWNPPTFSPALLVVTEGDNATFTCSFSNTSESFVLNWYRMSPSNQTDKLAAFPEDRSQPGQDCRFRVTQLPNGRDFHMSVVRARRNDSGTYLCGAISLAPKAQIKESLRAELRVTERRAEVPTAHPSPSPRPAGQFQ

[4] = target: T3, human DSG-3 (human, UniProt P32926 50-615, limits assumed); experiment: bridging ELISA, plate coated with hDSG-3, test article at 1 nM, then his-tagged hCD25 1 ug/mL, anti-His-HRP detection
T3 construct: Soluble analyte (Octet) and plate coat (ELISA); also called hDSG-3
T3 sequence (looked up): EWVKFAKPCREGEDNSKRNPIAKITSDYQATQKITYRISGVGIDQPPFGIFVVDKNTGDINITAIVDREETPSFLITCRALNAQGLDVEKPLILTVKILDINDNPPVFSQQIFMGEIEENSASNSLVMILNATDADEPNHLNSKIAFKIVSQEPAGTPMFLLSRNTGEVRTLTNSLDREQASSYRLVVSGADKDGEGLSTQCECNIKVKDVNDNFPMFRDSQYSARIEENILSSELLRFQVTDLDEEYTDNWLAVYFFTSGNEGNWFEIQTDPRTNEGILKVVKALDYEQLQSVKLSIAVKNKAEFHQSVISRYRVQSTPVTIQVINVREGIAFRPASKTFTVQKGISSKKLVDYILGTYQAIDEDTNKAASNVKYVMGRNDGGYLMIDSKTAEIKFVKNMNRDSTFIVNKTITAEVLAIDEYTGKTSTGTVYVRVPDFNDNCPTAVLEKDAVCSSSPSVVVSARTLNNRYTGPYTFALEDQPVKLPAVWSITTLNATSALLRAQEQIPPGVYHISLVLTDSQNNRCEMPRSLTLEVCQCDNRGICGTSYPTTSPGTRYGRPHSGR

[5] = target: T3, human DSG-3; experiment: bridging ELISA, plate coated with hDSG-3, test article at 10 nM, then his-tagged hCD25 1 ug/mL, anti-His-HRP detection
[6] = target: T3, human DSG-3; experiment: bridging ELISA, plate coated with hDSG-3, test article at 100 nM, then his-tagged hCD25 1 ug/mL, anti-His-HRP detection
[7] = target: T4, human CD25 (human, UniProt P01589 22-213, limits assumed); experiment: BLI (Octet), test article captured on anti-human Fc biosensors, 1:1 global fit (method text names desmogleins as analyte; result told for human CD25)
T4 construct: construct not described
T4 sequence (looked up): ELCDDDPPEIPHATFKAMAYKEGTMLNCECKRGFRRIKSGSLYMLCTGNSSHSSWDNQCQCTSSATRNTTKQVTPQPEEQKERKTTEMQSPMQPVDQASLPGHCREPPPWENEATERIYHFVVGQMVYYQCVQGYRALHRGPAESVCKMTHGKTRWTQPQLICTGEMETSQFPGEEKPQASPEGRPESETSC

PD-1 on PD-1 reporter Jurkat cells, sequence (Q15116 25-288): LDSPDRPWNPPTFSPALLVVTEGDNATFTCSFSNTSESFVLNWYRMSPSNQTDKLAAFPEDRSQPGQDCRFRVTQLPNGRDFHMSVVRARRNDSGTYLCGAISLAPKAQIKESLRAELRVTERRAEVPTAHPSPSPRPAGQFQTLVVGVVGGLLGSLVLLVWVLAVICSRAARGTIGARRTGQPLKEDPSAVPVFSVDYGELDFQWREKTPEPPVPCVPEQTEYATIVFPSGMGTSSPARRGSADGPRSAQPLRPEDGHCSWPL

B1: PD1DSGAB1 (bispecific antibody)
heavy: QVQLVQSGAEVKKPGASVKVSCKASGYSFTTYYMHWVRQAPGQGLEWMGIINPSGGSTSYAQKFQGRVTMTRDTSTSTVYMELSSLRSEDTAVYYCASGWVYWGQGTLVTVSSASTKGPSVFPLAPSSKSTSGGTAALGCLVKDYFPEPVTVSWNSGALTSGVHTFPAVLQSSGLYSLSSVVTVPSSSLGTQTYICNVNHKPSNTKVDKKVEPKSCDKTHTCPPCPAPEAAGAPSVFLFPPKPKDTLMISRTPEVTCVVVDVSHEDPEVKFNWYVDGVEVHNAKTKPREEQYNSTYRVVSVLTVLHQDWLNGKEYKCKVSNKALPAPIEKTISKAKGQPREPQVYTLPPSREEMTKNQVSLTCLVKGFYPSDIAVEWESNGQPENNYKTTPPVLDSDGSFFLYSKLTVDKSRWQQGNVFSCSVMHEALHNHYTQKSLSLSPGGGGGSGGGGSGGGGSQSVLTQPPSVSGTPGQRVTISCSGSSSHIGSNYVYWYQQLPGTAPKILIYSNDQRPAGVPDRFSASKSGTSASLAISGLRSEDEADYYCAAWDDGQGGVFGGGTKLTVLGGGGSGGGGSGGGGSGGGGSQVQLQESGPGPVKPSGTLSLTCGVSGGSISSNHWWTWVRQPPGKGLEWIGEIYHNGSTFLNPSLKSRVTISVDKSNNQFSLKLTSVTAADTAVYYCARGWHRTGFRGYPSHWYFDLWGRGTLVSVSS
light: not shown
notes: Anti-PD-1 agonist human IgG1 with an SD1 anti-desmoglein scFv at the C-terminus of each heavy chain (PD-1 ML-N format)
SHP-2 recruitment in PD-1 reporter Jurkat cells (test article on anti-human IgG coated plate), EC50 at 2 hours [1]: 107 nM
SHP-2 recruitment in PD-1 reporter Jurkat cells (test article on anti-human IgG coated plate), EC50 at 24 hours [1]: 11.2 nM
Insulin polyreactivity score [2]: 1.3
Kd [3]: 123 nM

B2: IL2DSGAB3 (other)
heavy: EVQLVESGGGLVQPGRSLRLSCAASGFTFDDYAMHWVRQAPGKGLEWVSGISWNSGSIDYADSVKGRFTISRDNAKNSLYLQMNSLRVEDTALYYCAKDGSRVFGVGGGFDFWGQGTMVTVSSASTKGPSVFPLAPSSKSTSGGTAALGCLVKDYFPEPVTVSWNSGALTSGVHTFPAVLQSSGLYSLSSVVTVPSSSLGTQTYICNVNHKPSNTKVDKKVEPKSCDKTHTCPPCPAPEAAGAPSVFLFPPKPKDTLMISRTPEVTCVVVDVSHEDPEVKFNWYVDGVEVHNAKTKPREEQYNSTYRVVSVLTVLHQDWLNGKEYKCKVSNKALPAPIEKTISKAKGQPREPQVYTLPPSREEMTKNQVSLTCLVKGFYPSDIAVEWESNGQPENNYKTTPPVLDSDGSFFLYSKLTVDKSRWQQGNVFSCSVMHEALHNHYTQKSLSLSPGGGGGSAPTSSSTKKTQLQLEHLLLDLQMILNGINNYKNPKLTRMLTFKFYMPKKATELKHLQCLEEELKPLEEALNLAPSKNFHLRPRDLISDINVIVLELKGSETTFMCEYADETATIVEFINRWITFSQSIISTLT
light: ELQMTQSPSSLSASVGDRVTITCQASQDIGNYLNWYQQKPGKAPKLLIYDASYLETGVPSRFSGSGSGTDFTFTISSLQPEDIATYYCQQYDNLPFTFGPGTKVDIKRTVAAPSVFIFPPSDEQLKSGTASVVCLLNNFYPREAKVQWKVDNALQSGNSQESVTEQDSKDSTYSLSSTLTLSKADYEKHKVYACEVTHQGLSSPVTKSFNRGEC
notes: SD3 anti-desmoglein human IgG1 with the IL-2 mutein fused to the C-terminus of the heavy chain; copies: 2 + 2
Insulin polyreactivity score [2]: 2.9
absorbance (OD450 nm) [4]: 0.508
absorbance (OD450 nm) [5]: 0.628
absorbance (OD450 nm) [6]: 0.756

B3: PD1DSGAB4 (bispecific antibody, human IgG1, kappa)
heavy: QVQLVQSGAEVKKPGASVKVSCKASGYSFTTYYMHWVRQAPGQGLEWMGIINPSGGSTSYAQKFQGRVTMTRDTSTSTVYMELSSLRSEDTAVYYCASGWVYWGQGTLVTVSSASTKGPSVFPLAPSSKSTSGGTAALGCLVKDYFPEPVTVSWNSGALTSGVHTFPAVLQSSGLYSLSSVVTVPSSSLGTQTYICNVNHKPSNTKVDKKVEPKSCDKTHTCPPCPAPEAAGAPSVFLFPPKPKDTLMISRTPEVTCVVVDVSHEDPEVKFNWYVDGVEVHNAKTKPREEQYNSTYRVVSVLTVLHQDWLNGKEYKCKVSNKALPAPIEKTISKAKGQPREPQVYTLPPSREEMTKNQVSLTCLVKGFYPSDIAVEWESNGQPENNYKTTPPVLDSDGSFFLYSKLTVDKSRWQQGNVFSCSVMHEALHNHYTQKSLSLSPGGGGGSGGGGSGGGGSELVLTQPPSVPVAPGQTANISCGGNNIGRQTVHWYQQKPGQAPVLVVFDDSDRPAGIPERFSGSNSGNTATLTISRVEAGDEADYYCQVWDSSSDHVVFGGGTQLTVLGGGGSGGGGSGGGGSGGGGSQVQLVQSGGGVVQSGRSLRLSCAASGFTFSDYAMHWVRQAPGKGLEWVAVISHGGTKKYTGDSVKGRFIISRDNSKNTVFLQMNSLRVEDTAVYYCARDRVEGYVWGGTFDHWGQGTPVTVSS
light: not shown
notes: Anti-PD-1 agonist human IgG1 with an SD4 anti-desmoglein scFv at the C-terminus of each heavy chain; copies: 2 + 2
Kd [3]: 243 nM

B4: IL2DSGAB4 (other)
heavy: QVQLVQSGGGVVQSGRSLRLSCAASGFTFSDYAMHWVRQAPGKGLEWVAVISHGGTKKYTGDSVKGRFIISRDNSKNTVFLQMNSLRVEDTAVYYCARDRVEGYVWGGTFDHWGQGTPVTVSSASTKGPSVFPLAPSSKSTSGGTAALGCLVKDYFPEPVTVSWNSGALTSGVHTFPAVLQSSGLYSLSSVVTVPSSSLGTQTYICNVNHKPSNTKVDKKVEPKSCDKTHTCPPCPAPEAAGAPSVFLFPPKPKDTLMISRTPEVTCVVVDVSHEDPEVKFNWYVDGVEVHNAKTKPREEQYNSTYRVVSVLTVLHQDWLNGKEYKCKVSNKALPAPIEKTISKAKGQPREPQVYTLPPSREEMTKNQVSLTCLVKGFYPSDIAVEWESNGQPENNYKTTPPVLDSDGSFFLYSKLTVDKSRWQQGNVFSCSVMHEALHNHYTQKSLSLSPGGGGGSAPTSSSTKKTQLQLEHLLLDLQMILNGINNYKNPKLTRMLTFKFYMPKKATELKHLQCLEEELKPLEEALNLAPSKNFHLRPRDLISDINVIVLELKGSETTFMCEYADETATIVEFINRWITFSQSIISTLT
light: ELVLTQPPSVPVAPGQTANISCGGNNIGRQTVHWYQQKPGQAPVLVVFDDSDRPAGIPERFSGSNSGNTATLTISRVEAGDEADYYCQVWDSSSDHVVFGGGTQLTVLGQPKAAPSVTLFPPSSEELQANKATLVCLISDFYPGAVTVAWKADSSPVKAGVETTTPSKQSNNKYAASSYLSLTPEQWKSHRSYSCQVTHEGSTVEKTVAPTECS
notes: SD4 anti-desmoglein human IgG1 with the IL-2 mutein fused to the C-terminus of the heavy chain; copies: 2 + 2
Insulin polyreactivity score [2]: 3.1
absorbance (OD450 nm) [4]: 0.194
absorbance (OD450 nm) [5]: 0.545
absorbance (OD450 nm) [6]: 1.16

B5: IL2DSGAB7 (other)
heavy: EVQLVESGGGLVQPGRSLRLSCAASGFTFDDYAMHWVRQAPGKGLEWVSGISWNSGSIDYADSVKGRFTISRDNAKNSLYLQMNSLRVEDTALYYCAKDGSRVFGVGGGFDFWGQGTMVTVSSASTKGPSVFPLAPSSKSTSGGTAALGCLVKDYFPEPVTVSWNSGALTSGVHTFPAVLQSSGLYSLSSVVTVPSSSLGTQTYICNVNHKPSNTKVDKKVEPKSCDKTHTCPPCPAPEAAGAPSVFLFPPKPKDTLMISRTPEVTCVVVDVSHEDPEVKFNWYVDGVEVHNAKTKPREEQYNSTYRVVSVLTVLHQDWLNGKEYKCKVSNKALPAPIEKTISKAKGQPREPQVYTLPPSREEMTKNQVSLTCLVKGFYPSDIAVEWESNGQPENNYKTTPPVLDSDGSFFLYSKLTVDKSRWQQGNVFSCSVMHEALHNHYTQKSLSLSPG
light: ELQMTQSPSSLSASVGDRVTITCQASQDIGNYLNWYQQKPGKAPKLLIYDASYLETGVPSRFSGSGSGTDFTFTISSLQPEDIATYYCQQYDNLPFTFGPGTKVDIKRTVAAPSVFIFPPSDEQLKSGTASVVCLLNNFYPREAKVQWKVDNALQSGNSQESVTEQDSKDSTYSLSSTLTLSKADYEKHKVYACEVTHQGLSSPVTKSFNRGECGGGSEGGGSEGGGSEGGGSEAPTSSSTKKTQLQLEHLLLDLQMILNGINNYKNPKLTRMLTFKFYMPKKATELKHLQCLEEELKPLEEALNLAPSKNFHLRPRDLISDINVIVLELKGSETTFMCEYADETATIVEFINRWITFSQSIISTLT
notes: also called TL2DSGAB7
absorbance (OD450 nm) [4]: 0.36
absorbance (OD450 nm) [5]: 0.55
absorbance (OD450 nm) [6]: 1.2
Kd [7]: 3.5 nM

B6: PD1DSGAB3 (bispecific antibody, human IgG1, kappa)
heavy: QVQLVQSGAEVKKPGASVKVSCKASGYSFTTYYMHWVRQAPGQGLEWMGIINPSGGSTSYAQKFQGRVTMTRDTSTSTVYMELSSLRSEDTAVYYCASGWVYWGQGTLVTVSSASTKGPSVFPLAPSSKSTSGGTAALGCLVKDYFPEPVTVSWNSGALTSGVHTFPAVLQSSGLYSLSSVVTVPSSSLGTQTYICNVNHKPSNTKVDKKVEPKSCDKTHTCPPCPAPEAAGAPSVFLFPPKPKDTLMISRTPEVTCVVVDVSHEDPEVKFNWYVDGVEVHNAKTKPREEQYNSTYRVVSVLTVLHQDWLNGKEYKCKVSNKALPAPIEKTISKAKGQPREPQVYTLPPSREEMTKNQVSLTCLVKGFYPSDIAVEWESNGQPENNYKTTPPVLDSDGSFFLYSKLTVDKSRWQQGNVFSCSVMHEALHNHYTQKSLSLSPGGGGGSGGGGSGGGGSELQMTQSPSSLSASVGDRVTITCQASQDIGNYLNWYQQKPGKAPKLLIYDASYLETGVPSRFSGSGSGTDFTFTISSLQPEDIATYYCQQYDNLPFTFGPGTKVDIKGGGGSGGGGSGGGGSGGGGSEVQLVESGGGLVQPGRSLRLSCAASGFTFDDYAMHWVRQAPGKGLEWVSGISWNSGSIDYADSVKGRFTISRDNAKNSLYLQMNSLRVEDTALYYCAKDGSRVFGVGGGFDFWGQGTMVTVSS
light: not shown
notes: Anti-PD-1 agonist human IgG1 with an SD3 anti-desmoglein scFv at the C-terminus of each heavy chain; copies: 2 + 2
Insulin polyreactivity score [2]: 1.7
Kd [3]: 328 nM
